Measurements as given in PMC9245664 (Proceedings of the National Academy of Sciences of the …, 2022).
Changes are numbered by the printed parent chain.

How the values were obtained:
Test in all cases: NMR titration
[1] = biological target: T1, Wzc_(CDΔC,ΔCys) (Cys544Ser/Cys563Ser) (E. coli (K-12), UniProt P76387 447-704, Cys544Ser | Cys563Ser)
T1 sequence: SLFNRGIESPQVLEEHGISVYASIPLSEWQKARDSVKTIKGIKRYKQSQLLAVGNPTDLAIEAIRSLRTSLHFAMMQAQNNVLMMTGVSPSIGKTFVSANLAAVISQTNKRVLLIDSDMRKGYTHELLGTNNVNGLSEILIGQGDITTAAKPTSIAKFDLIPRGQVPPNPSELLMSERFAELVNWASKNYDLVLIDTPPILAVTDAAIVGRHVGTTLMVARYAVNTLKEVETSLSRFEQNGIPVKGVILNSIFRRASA

[2] = biological target: T2, Wzc_(CDΔC,ΔCys,Val466Cys) (E. coli (K-12), UniProt P76387 447-704, Cys544Ser | Cys563Ser | Val466Cys)
T2 sequence: T1 sequence with V20C

[3] = biological target: T3, Wzc_(CDΔC,ΔCys,Gln523Cys) (E. coli (K-12), UniProt P76387 447-704, Cys544Ser | Cys563Ser | Gln523Cys)
T3 sequence: T1 sequence with Q77C

[4] = biological target: T4, Wzc_(CDΔC,ΔCys,Ser516Cys) (E. coli (K-12), UniProt P76387 447-704, Cys544Ser | Cys563Ser | Ser516Cys)
T4 sequence: T1 sequence with S70C

[5] = biological target: T5, Wzc_(CDΔC,ΔCys,Leu505Cys) (E. coli (K-12), UniProt P76387 447-704, Cys544Ser | Cys563Ser | Leu505Cys)
T5 sequence: T1 sequence with L59C

[6] = biological target: T6, Wzc_(CDΔC,ΔCys,Lys556Cys) (E. coli (K-12), UniProt P76387 447-704, Cys544Ser | Cys563Ser | Lys556Cys)
T6 sequence: T1 sequence with K110C

B1: full-length E. coli (K-12) Wzb, wild type (enzyme)
chain: MFNNILVVCVGNICRSPTAERLLQRYHPELKVESAGLGALVGKGADPTAISVAAEHQLSLEGHCARQISRRLCRNYDLILTMEKRHIERLCEMAPEMRGKVMLFGHWDNECEIPDPYRKSRETFAAVYTLLERSARQWAQALNAEQV
[1]
  Kd: 15.2 ± 0.6 µM
[2]
  Kd: 8.9 ± 0.3 µM
[3]
  Kd: 16.9 ± 0.5 µM
[4]
  Kd: 11.3 ± 0.7 µM
[5]
  Kd: 43.8 ± 1.3 µM
[6]
  Kd: 7.3 ± 0.4 µM
